Test results taken from PMC9755527.

How the values were obtained:
CccR1-220 = CccR1-220 (Yersinia pseudotuberculosis, UniProt Q666X7 1-220); test: ITC; conditions: protein: recombinant; tags: His6 (pET28a) or GST (pGEX6p-1)
CccR201-380 = CccR201-380 (Yersinia pseudotuberculosis, UniProt Q666X7 201-380); test: ITC; conditions: protein: recombinant; tags: His6 (EMSA)
CccR = CccR (Yersinia pseudotuberculosis, UniProt Q666X7 1-380); test: ITC; stoichiometry 1:2; conditions: protein: recombinant; tags: His6 (pET28a) or GST (pGEX6p-1); His6 stated for EMSA; chain copies: 2

B1: PcccR 100-bp ITC probe (dsDNA)
DNA 1: ATATTCAATCGGATGTATCGCCACGGATTTTTGAGATAATCATAAAGTTACTTTTGAGATAATCTACAAATGATAATCTGTTAACATAATGGCTATAAAG
DNA 2: CTTTATAGCCATTATGTTAACAGATTATCATTTGTAGATTATCTCAAAAGTAACTTTATGATTATCTCAAAAATCCGTGGCGATACATCCGATTGAATAT
CccR1-220
  Kd: 1530 ± 130 µM
CccR201-380
  Kd: 6.13 ± 0.11 µM
CccR
  Kd: 2.56 ± 0.12 µM
